The source of these data is article PMC5223167.

The target in this series is T1, PPE2 (Mycobacterium tuberculosis (BAC-Rv329 …, UniProt P9WI47)).
T1 sequence: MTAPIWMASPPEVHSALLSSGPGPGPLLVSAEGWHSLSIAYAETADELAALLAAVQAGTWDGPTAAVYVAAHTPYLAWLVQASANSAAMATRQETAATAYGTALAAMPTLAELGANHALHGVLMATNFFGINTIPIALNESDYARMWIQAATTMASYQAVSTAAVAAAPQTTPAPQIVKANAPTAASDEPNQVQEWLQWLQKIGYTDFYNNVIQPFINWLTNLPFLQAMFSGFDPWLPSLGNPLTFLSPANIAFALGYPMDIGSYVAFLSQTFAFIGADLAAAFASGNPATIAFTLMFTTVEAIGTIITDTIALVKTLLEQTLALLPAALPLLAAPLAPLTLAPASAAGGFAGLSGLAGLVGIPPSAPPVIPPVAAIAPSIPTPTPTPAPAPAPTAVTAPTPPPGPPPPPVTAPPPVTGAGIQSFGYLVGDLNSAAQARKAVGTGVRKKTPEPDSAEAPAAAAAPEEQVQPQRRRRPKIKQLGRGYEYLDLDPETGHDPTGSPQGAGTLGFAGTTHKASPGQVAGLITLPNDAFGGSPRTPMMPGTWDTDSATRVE
Description: EMSA; 20 mM HEPES (pH not stated), 0.5 mM DTT, 0.5 mM EDTA, 5% glycerol, room temperature, 30 min; […]. The note with it: protein: recombinant; tags: N-terminal His (pRSET A); label: 32P 5' end; blunt.

B1: inos proximal GATA-1 element (overlaps TATA box) (dsDNA)
DNA 1: GGGGTATAAATACCTGATGGCTGCTGCCAG
DNA 2: CTGGCAGCAGCCATCAGGTATTTATACCCC
In the case of B1, the binding result was “binds”.

B2: IRF-1 consensus (dsDNA)
DNA 1: CACTGTCAATATTTCACTTTCATAATG
DNA 2: CATTATGAAAGTGAAATATTGACAGTG
As to B2, the binding result is “no binding”.

B3: GATA consensus (dsDNA)
DNA 1: CACTTGATAACAGAAAGTGATAACTCT
DNA 2: AGAGTTATCACTTTCTGTTATCAAGTG
On to B3, for which the binding result was “binds”.

B4: NF-kB consensus (dsDNA)
DNA 1: AGTTGAGGGGACTTTCCCAGGC
DNA 2: GCCTGGGAAAGTCCCCTCAACT
For B4, the binding result is “no binding”.
